Measurements reported in patent US20250002594A1 (SHANGHAI EPIMAB BIOTHERAPEUTICS, published 2025).

T1: recombinant human CD122 (human, UniProt P14784 27-239, limits assumed)
T1 construct: also called IL-2Rβ
T1 sequence (looked up): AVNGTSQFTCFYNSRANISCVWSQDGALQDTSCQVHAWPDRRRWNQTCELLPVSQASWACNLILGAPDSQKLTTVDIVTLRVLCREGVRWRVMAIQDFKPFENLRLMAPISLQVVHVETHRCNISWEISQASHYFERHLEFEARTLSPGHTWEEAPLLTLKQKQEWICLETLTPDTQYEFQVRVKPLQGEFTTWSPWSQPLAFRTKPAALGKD

T2: recombinant human CD132 (human, UniProt P31785 23-262, limits assumed)
T2 construct: also called IL-2Rγ
T2 sequence (looked up): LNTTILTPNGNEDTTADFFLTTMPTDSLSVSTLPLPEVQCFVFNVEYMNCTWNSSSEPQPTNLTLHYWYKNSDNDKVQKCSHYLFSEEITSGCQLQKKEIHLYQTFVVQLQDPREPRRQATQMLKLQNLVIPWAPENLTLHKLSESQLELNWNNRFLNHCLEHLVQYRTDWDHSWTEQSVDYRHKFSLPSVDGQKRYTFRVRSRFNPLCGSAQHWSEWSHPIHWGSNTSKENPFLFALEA


What was measured:
[1] = target: T1, recombinant human CD122; test: GCI (WAVEsystem)
Procedure: (§1) Binding affinity and kinetics constants of humanized CD122/CD132 FIT-Ig were determined using a label-free biosensor on WAVEsystem (Creoptix AG, Switzerland) by grating-coupled interferometry (GCI). Briefly, a PCP WAVEchip (Creoptix AG) was pre-immobilized with goat anti-human IgG Fc antibody to a density of 3830 pg/mm² by amine coupling, and used to capture humanized CD122/CD132 FIT-Ig generated from Example 3.2.1 to a density of ˜90 pg/mm², then exposed to recombinant human/cyno CD122 or CD132 serially diluted (3× dilutions from 200 nM to […] for human CD122, human CD132 and cyno CD132, respectively; and from 1000 nM to 1.37 nM for cyno CD122) in 1X HBS-EP+ buffer (Cytiva, Cat No. BR100669) by injection at 60 μL/min for 250s to assess association, followed by 1200s dissociation. After each round of association and dissociation, WAVEchip surface was regenerated by subject to pH 1.5 Glycine-HCl buffer injection at 60 μL/min for 120s. Sensorgrams were recorded at 25° C., the data were analyzed on WAVEcontrol (Creoptix AG) and double referenced by subtracting the signals from blank injections and the reference channel. A Langmuir 1:1 model was used for data fitting.

[2] = target: T2, recombinant human CD132; test: GCI (WAVEsystem)
Procedure: as §1

Binder	binding result [1]	binding result [2]
huFIT2019-86b-17 (bispecific antibody, human IgG1, kappa, L234A L235A) chain 1: not shown chain 2: EVQLVQSGAEVKKPGASVKVSCKASGYTFTDYVISWVRQATGQGLEWMGEIYPGDAQTYYNEMFKGRVTMTRDTSISTAYMELSSLRSEDTAVYYCARGSYTYDNYAMDFWGQGTTVTVSSASTKGPSVFPLAPSSKSTSGGTAALGCLVKDYFPEPVTVSWNSGALTSGVHTFPAVLQSSGLYSLSSVVTVPSSSLGTQTYICNVNHKPSNTKVDKKVEPKSC chain 3: not shown	binds	binds
huFIT2019-86b-14 (bispecific antibody, human IgG1, kappa, L234A L235A) chain 1: not shown chain 2: EVQLVQSGAEVKKPGASVKVSCKASGYTFTDYVISWVRQATGQGLEWMGEIYPGDAQTYYNEMFKGRVTLTADTSISTAYMELSSLRSEDTAVYYCARGSYTYDNYAMDFWGQGTTVTVSSASTKGPSVFPLAPSSKSTSGGTAALGCLVKDYFPEPVTVSWNSGALTSGVHTFPAVLQSSGLYSLSSVVTVPSSSLGTQTYICNVNHKPSNTKVDKKVEPKSC chain 3: not shown	binds	binds
huFIT2019-86b-22 (bispecific antibody, human IgG1, kappa, L234A L235A) chain 1: not shown chain 2: EVQLVQSGAEVKKPGASVKVSCKASGYRFSDYVISWVKQATGQGLEWIGEIYPGDAQTYYNEMFKGRATLTADKSISTAYMELSSLRSEDTAVYFCARGSYTYDNYAMDFWGQGTTVTVSSASTKGPSVFPLAPSSKSTSGGTAALGCLVKDYFPEPVTVSWNSGALTSGVHTFPAVLQSSGLYSLSSVVTVPSSSLGTQTYICNVNHKPSNTKVDKKVEPKSC chain 3: not shown	binds	binds
huFIT2019-86b-15 (bispecific antibody, human IgG1, kappa, L234A L235A) chain 1: not shown chain 2: EVQLVQSGAEVKKPGASVKVSCKASGYTFTDYVISWVKQATGQGLEWIGEIYPGDAQTYYNEMFKGRATLTADKSISTAYMELSSLRSEDTAVYYCARGSYTYDNYAMDFWGQGTTVTVSSASTKGPSVFPLAPSSKSTSGGTAALGCLVKDYFPEPVTVSWNSGALTSGVHTFPAVLQSSGLYSLSSVVTVPSSSLGTQTYICNVNHKPSNTKVDKKVEPKSC chain 3: not shown	binds	binds
huFIT2019-86b-26 (bispecific antibody, human IgG1, kappa, L234A L235A) chain 1: not shown chain 2: EVQLVQSGAEVKKPGASVKVSCKASGYTFTDYVISWVRQATGQGLEWMGEIYPGDAQTYYNEMFKGRVTLTADTSISTAYMELSSLRSEDTAVYYCARGSYTYDNYAMDFWGQGTTVTVSSASTKGPSVFPLAPSSKSTSGGTAALGCLVKDYFPEPVTVSWNSGALTSGVHTFPAVLQSSGLYSLSSVVTVPSSSLGTQTYICNVNHKPSNTKVDKKVEPKSC chain 3: not shown	binds	binds
huFIT2019-86b-12 (bispecific antibody, human IgG1, kappa, L234A L235A) chain 1: not shown chain 2: EVQLVQSGAEVKKPGASVKVSCKASGYTFTDYVISWVRQATGQGLEWMGEIYPGDAQTYYNEMFKGRVTMTADTSISTAYMELSSLRSEDTAVYYCARGSYTYDNYAMDFWGQGTTVTVSSASTKGPSVFPLAPSSKSTSGGTAALGCLVKDYFPEPVTVSWNSGALTSGVHTFPAVLQSSGLYSLSSVVTVPSSSLGTQTYICNVNHKPSNTKVDKKVEPKSC chain 3: not shown	binds	binds
huFIT2019-86b-20 (bispecific antibody, human IgG1, kappa, L234A L235A) chain 1: not shown chain 2: EVQLVQSGAEVKKPGASVKVSCKASGYTFTDYVISWVRQATGQGLEWMGEIYPGDAQTYYNEMFKGRVTLTADTSISTAYMELSSLRSEDTAVYYCARGSYTYDNYAMDFWGQGTTVTVSSASTKGPSVFPLAPSSKSTSGGTAALGCLVKDYFPEPVTVSWNSGALTSGVHTFPAVLQSSGLYSLSSVVTVPSSSLGTQTYICNVNHKPSNTKVDKKVEPKSC chain 3: not shown	binds	binds
huFIT2019-86b-25 (bispecific antibody, human IgG1, kappa, L234A L235A) chain 1: not shown chain 2: EVQLVQSGAEVKKPGASVKVSCKASGYRFSDYVISWVRQATGQGLEWMGEIYPGDAQTYYNEMFKGRVTMTADTSISTAYMELSSLRSEDTAVYYCARGSYTYDNYAMDFWGQGTTVTVSSASTKGPSVFPLAPSSKSTSGGTAALGCLVKDYFPEPVTVSWNSGALTSGVHTFPAVLQSSGLYSLSSVVTVPSSSLGTQTYICNVNHKPSNTKVDKKVEPKSC chain 3: not shown	binds	binds
huFIT2019-86b-13 (bispecific antibody, human IgG1, kappa, L234A L235A) chain 1: not shown chain 2: EVQLVQSGAEVKKPGASVKVSCKASGYRFSDYVISWVRQATGQGLEWMGEIYPGDAQTYYNEMFKGRVTMTADTSISTAYMELSSLRSEDTAVYYCARGSYTYDNYAMDFWGQGTTVTVSSASTKGPSVFPLAPSSKSTSGGTAALGCLVKDYFPEPVTVSWNSGALTSGVHTFPAVLQSSGLYSLSSVVTVPSSSLGTQTYICNVNHKPSNTKVDKKVEPKSC chain 3: not shown	binds	binds
huFIT2019-86b-19 (bispecific antibody, human IgG1, kappa, L234A L235A) chain 1: not shown chain 2: EVQLVQSGAEVKKPGASVKVSCKASGYRFSDYVISWVRQATGQGLEWMGEIYPGDAQTYYNEMFKGRVTMTADTSISTAYMELSSLRSEDTAVYYCARGSYTYDNYAMDFWGQGTTVTVSSASTKGPSVFPLAPSSKSTSGGTAALGCLVKDYFPEPVTVSWNSGALTSGVHTFPAVLQSSGLYSLSSVVTVPSSSLGTQTYICNVNHKPSNTKVDKKVEPKSC chain 3: not shown	binds	binds
huFIT2019-86b-21 (bispecific antibody, human IgG1, kappa, L234A L235A) chain 1: not shown chain 2: EVQLVQSGAEVKKPGASVKVSCKASGYTFTDYVISWVKQATGQGLEWIGEIYPGDAQTYYNEMFKGRATLTADKSISTAYMELSSLRSEDTAVYYCARGSYTYDNYAMDFWGQGTTVTVSSASTKGPSVFPLAPSSKSTSGGTAALGCLVKDYFPEPVTVSWNSGALTSGVHTFPAVLQSSGLYSLSSVVTVPSSSLGTQTYICNVNHKPSNTKVDKKVEPKSC chain 3: not shown	binds	binds
huFIT2019-86b-18 (bispecific antibody, human IgG1, kappa, L234A L235A) chain 1: not shown chain 2: EVQLVQSGAEVKKPGASVKVSCKASGYTFTDYVISWVRQATGQGLEWMGEIYPGDAQTYYNEMFKGRVTMTADTSISTAYMELSSLRSEDTAVYYCARGSYTYDNYAMDFWGQGTTVTVSSASTKGPSVFPLAPSSKSTSGGTAALGCLVKDYFPEPVTVSWNSGALTSGVHTFPAVLQSSGLYSLSSVVTVPSSSLGTQTYICNVNHKPSNTKVDKKVEPKSC chain 3: not shown	binds	binds
huFIT2019-86b-23 (bispecific antibody, human IgG1, kappa, L234A L235A) chain 1: not shown chain 2: EVQLVQSGAEVKKPGASVKVSCKASGYTFTDYVISWVRQATGQGLEWMGEIYPGDAQTYYNEMFKGRVTMTRDTSISTAYMELSSLRSEDTAVYYCARGSYTYDNYAMDFWGQGTTVTVSSASTKGPSVFPLAPSSKSTSGGTAALGCLVKDYFPEPVTVSWNSGALTSGVHTFPAVLQSSGLYSLSSVVTVPSSSLGTQTYICNVNHKPSNTKVDKKVEPKSC chain 3: not shown	binds	binds
huFIT2019-86b-16 (bispecific antibody, human IgG1, kappa, L234A L235A) chain 1: not shown chain 2: EVQLVQSGAEVKKPGASVKVSCKASGYRFSDYVISWVKQATGQGLEWIGEIYPGDAQTYYNEMFKGRATLTADKSISTAYMELSSLRSEDTAVYFCARGSYTYDNYAMDFWGQGTTVTVSSASTKGPSVFPLAPSSKSTSGGTAALGCLVKDYFPEPVTVSWNSGALTSGVHTFPAVLQSSGLYSLSSVVTVPSSSLGTQTYICNVNHKPSNTKVDKKVEPKSC chain 3: not shown	binds	binds
huFIT2019-86b-27 (bispecific antibody, human IgG1, kappa, L234A L235A) chain 1: not shown chain 2: EVQLVQSGAEVKKPGASVKVSCKASGYTFTDYVISWVKQATGQGLEWIGEIYPGDAQTYYNEMFKGRATLTADKSISTAYMELSSLRSEDTAVYYCARGSYTYDNYAMDFWGQGTTVTVSSASTKGPSVFPLAPSSKSTSGGTAALGCLVKDYFPEPVTVSWNSGALTSGVHTFPAVLQSSGLYSLSSVVTVPSSSLGTQTYICNVNHKPSNTKVDKKVEPKSC chain 3: not shown	binds	binds
huFIT2019-86b-24 (bispecific antibody, human IgG1, kappa, L234A L235A) chain 1: not shown chain 2: EVQLVQSGAEVKKPGASVKVSCKASGYTFTDYVISWVRQATGQGLEWMGEIYPGDAQTYYNEMFKGRVTMTADTSISTAYMELSSLRSEDTAVYYCARGSYTYDNYAMDFWGQGTTVTVSSASTKGPSVFPLAPSSKSTSGGTAALGCLVKDYFPEPVTVSWNSGALTSGVHTFPAVLQSSGLYSLSSVVTVPSSSLGTQTYICNVNHKPSNTKVDKKVEPKSC chain 3: not shown	binds	binds
huFIT2019-86b-11 (bispecific antibody, human IgG1, kappa, L234A L235A) chain 1: not shown chain 2: EVQLVQSGAEVKKPGASVKVSCKASGYTFTDYVISWVRQATGQGLEWMGEIYPGDAQTYYNEMFKGRVTMTRDTSISTAYMELSSLRSEDTAVYYCARGSYTYDNYAMDFWGQGTTVTVSSASTKGPSVFPLAPSSKSTSGGTAALGCLVKDYFPEPVTVSWNSGALTSGVHTFPAVLQSSGLYSLSSVVTVPSSSLGTQTYICNVNHKPSNTKVDKKVEPKSC chain 3: not shown	binds	binds
